Test results published in US20230174641A1 (H LUNDBECK A S, published 2023).
Ends that are not written are not given here.

T1: human ACTH 1-39 (human)
T1 peptide: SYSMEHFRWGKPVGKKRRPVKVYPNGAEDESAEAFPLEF

T2: human ACTH 1-13 (human, ends and bridges not checked)
T2 construct: also called human alpha-MSH (ACTH 1-13); alpha-MSH
T2 peptide: SYSMEHFRWGKPV

T3: human ACTH 18-39 (human)
T3 construct: also called CLIP; CLIP (ACTH 18-39)
T3 peptide: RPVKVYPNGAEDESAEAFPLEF

T4: N-term biotinylated human ACTH 1-39 (human, N-terminal biotin)
T4 construct: also called huACTH 1-39
T4 peptide: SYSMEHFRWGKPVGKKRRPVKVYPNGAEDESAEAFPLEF


Assays:
human ACTH 1-39 [1] = molecular target: T1, human ACTH 1-39; assay: cell-based or functional assay
human ACTH 1-39 [2] = molecular target: T1, human ACTH 1-39; assay: cell-based or functional assay
human ACTH 1-39 [3] = molecular target: T1, human ACTH 1-39; assay: cell-based or functional assay
human ACTH 1-39 [4] = molecular target: T1, human ACTH 1-39; assay: cell-based or functional assay
human ACTH 1-39 [5] = molecular target: T1, human ACTH 1-39; assay: SPR ProteOn, antibody immobilised
Protocol: (§1) Antibody was immobilized to the surface of general amine coupling (GLC or GLM) Chips (Bio-Rad). […] At the chosen concentrations of antigen (ranging from 454 ng/ml to 5.6 ng/ml) association times of 200 seconds and dissociation times of 30-200 minutes were used with the ProteOnTM Manager Software (v3.1.0.6, Bio-Rad) to group and fit data using a 1:1 Langmuir binding model. Surfaces were regenerated between analyte queries using 10 mM glycine at pH 2.0. Data repeated across a single density was averaged and a single KD and standard propagation of error calculated for each antibody.

human ACTH 1-13 [6] = molecular target: T2, human ACTH 1-13; assay: SPR ProteOn, antibody immobilised
Protocol: as §1

human ACTH 18-39 [7] = molecular target: T3, human ACTH 18-39; assay: SPR ProteOn, antibody immobilised
Protocol: as §1

[8] = molecular target: T4, N-term biotinylated human ACTH 1-39; assay: ELISA, biotin-ACTH 1-39 on neutravidin plate
Protocol: All incubations were done at room temperature. […] The plates were then blocked using a blocking solution (PBS, 0.5% fish skin gelatin, 0.05% Tween-20) for approximately one hour. The blocking solution was then removed and the plates were then incubated with a dilution series of the antibody being tested for approximately one hour. At the end of this incubation, the plate was washed three times with wash buffer and further incubated with a secondary antibody containing solution (Peroxidase conjugated AffmiPure™ F(ab′)₂ fragment goat anti-human IgG, Fc fragment specific (Jackson Immunoresearch) for approximately 45 minutes and washed three times. Next a substrate solution (TMB peroxidase substrate, BioFx®, SurModics, Eden Prairie, Minn.) was added and incubated for 3 to 5 minutes in the dark. The reaction was stopped by addition of 0.5 M HCl and the plate was read at 450 nm in a plate-reader.

human ACTH 18-39 [9] = molecular target: T3, human ACTH 18-39; assay: SPR ProteOn, antibody immobilised; SPR, antibody on the chip, CLIP alone (Table 5)
Protocol: as §1

human ACTH 1-13 [10] = molecular target: T2, human ACTH 1-13; assay: SPR ProteOn, antibody immobilised; SPR, antibody on the chip, alpha-MSH alone (Table 6)
Protocol: as §1

Binder	MC2R IC50 (human ACTH 1-39 [1])	MC1R IC50 (human ACTH 1-39 [2])	MC3R IC50 (human ACTH 1-39 [3])	MC4R IC50 (human ACTH 1-39 [3])	MC5R IC50 (human ACTH 1-39 [3])	Y1 Cells IC50 (human ACTH 1-39 [4])	Kd (human ACTH 1-39 [5])	koff (human ACTH 1-39 [5])	koff (human ACTH 1-13 [6])	Kd (human ACTH 18-39 [7])	koff (human ACTH 18-39 [7])	kon (human ACTH 18-39 [7])	EC50 [8]	kon (human ACTH 1-39 [5])	Kd (human ACTH 18-39 [9])	koff (human ACTH 18-39 [9])	kon (human ACTH 18-39 [9])	Kd (human ACTH 1-13 [10])	koff (human ACTH 1-13 [10])	kon (human ACTH 1-13 [10])
Ab1 (antibody, human IgG1, kappa, N297A, V domains shown, rabbit/human chimeric antibody, made in HEK-293) VH: QSVKESGGRLVTPGTPLTLTCTVSGFSLSNYDMIWVRQAPGKGLESIGMIYDDGDTYYASWAKGRFTISKTSTTVDLKIISPTTEDTATYFCVKGVSNHWGPGTLVTVSS VL: DVVMTQTPASVEAAVGGTVTIKCQASQSISSYLAWYQQKPGQPPKLLIYSASTLASGVPSRFKGRGSGTEFTLTISDLECADAATYYCQSYDGSSGSSYGVGFGGGTEVVVKR	0.14 nM	2.38 nM	101 nM	56.4 nM	1100 nM	2.36 nM	0.19 nM	0.00019 s⁻¹	> 0.1 s⁻¹	150 nM	0.092 s⁻¹	620000 M⁻¹ s⁻¹	0.48 nM	–	–	–	–	–	–	–
Ab4 (antibody, human IgG1, kappa, N297A, V domains shown, rabbit/human chimeric antibody, made in HEK-293) VH: QSVEESGGRLVTPGTPLTLTYTVSGFSLSKHDMIWVRQAPGKGLESIGIIYDDGDTYYANWAKGRFTISKTSTTVDLKIISPTTEDTATYFCVKGVSNIWGPGTLVTVSS VL: DVVMTQTPASVEAAVGGTVTIKCRASQSISVYLAWYQQKAGQPPKLLIYQASKLASGVPSRFKGSGSGTEFTLTISDLECADAATYYCQSYDGSSSSSYGVGFGGGTEVVVKR	0.46 nM	5.73 nM	113 nM	65.8 nM	1300 nM	17.2 nM	0.27 nM	0.00027 s⁻¹	> 0.1 s⁻¹	270 nM	0.19 s⁻¹	710000 M⁻¹ s⁻¹	0.39 nM	1e+06 M⁻¹ s⁻¹	–	–	–	–	–	–
Ab11 (antibody, human IgG1, kappa, N297A, V domains shown, rabbit/human chimeric antibody, made in HEK-293) VH: QSLEESGGRLVTPGTSLTLTCTASGFSLSAYDILWVRQAPGKGLESIGMMYDDGDTYYATWAKGRFIISRTSTTMDLKIISPTTEDTATYFCVKGVSNIWGQGTLVTVSS VL: DIVMTQIPASVEAAVGGTVTIKCQASQSIDSSLAWYQQKPGQPPKLLIYSASTLASGVPSRFKGSGSGTEFTLTIGDLECADAATYYCQSYDGSSSSYYGIGFGGGTEVVVKR	0.03 nM	1.49 nM	108 nM	49.4 nM	4200 nM	1.53 nM	0.04 nM	4e-05 s⁻¹	> 0.1 s⁻¹	–	–	–	–	1e+06 M⁻¹ s⁻¹	54 nM	0.086 s⁻¹	1.6e+06 M⁻¹ s⁻¹	–	–	–
Ab12 (antibody, human IgG1, kappa, N297A, V domains shown, rabbit/human chimeric antibody, made in HEK-293) VH: QSVEESGGRLVTPGTPLTLTCTVSGSSLSDYDMIWVRQAPGKGLESIGIIYDDGDTYYATWAKGRFTISKTSTTVDLRIISPTTEDTATYFCVKGVSNMWGPGTLVTVSS VL: DVVMTQTPSSVSAAVGGTVTIKCQASQSIGSSLAWYQQKPGQRPKLLIYAASTLASGVPSRFKGSGSGTEFTLTISDLECADAATYYCQSYDGSSSSSYGVGFGGGTEVVVKR	0.05 nM	1.66 nM	–	–	–	2.68 nM	–	–	> 0.1 s⁻¹	–	–	–	0.76 nM	–	27 nM	0.024 s⁻¹	890000 M⁻¹ s⁻¹	–	–	–
Ab7 (antibody, human IgG1, kappa, N297A, V domains shown, rabbit/human chimeric antibody, made in HEK-293) VH: QSVEESGGRLVTPGTPLTLTCTVSGFSLSSYAMSWVRQAPGEGLEWIGIISDSGSTYYASWAKGRFTISKTSTTVDLRITSPTTEDTATYFCAREPEYGYDDYGDWVSDLWGQGTLVTVSS VL: DIVMTQTPASVEAAVGGTVTIKCQASQSISDYLSWYQQKPGQPPKLLIYRASTLASGVPSRFKGSGSGTQFTLTISDLECADAATYYCQSYYYSSSITYRNAFGGGTEVVVKR	0.09 nM	1.29 nM	64.2 nM	49.7 nM	1100 nM	2.49 nM	0.037 nM	3.7e-05 s⁻¹	–	–	> 0.1 s⁻¹	–	2.24 nM	1e+06 M⁻¹ s⁻¹	–	–	–	54 nM	0.013 s⁻¹	~240000 M⁻¹ s⁻¹
Ab9 (antibody, human IgG1, kappa, N297A, V domains shown, rabbit/human chimeric antibody, made in HEK-293) VH: QSVEESGGRLVTPGTPLTLTCTVSGFSLNSYAMSWVRQAPGEGLEWIGIISDSGRTYYASWAKGRFTISKTSTTVDLKITSPTTEDTATYFCAREPEYGYDDYGDWVSDLWGPGTLVTVSS VL: DVVMTQTPASVEAAVGGTVTIKCQASQSISSYLSWYQQKPGQPPKLLIYRASTLASGVPSRFKGSGSGTQFTLTISDLECADAATYYCQSYYYSSSITYRNAFGGGTEVVVKR	0.12 nM	–	–	–	–	3.47 nM	–	–	–	–	> 0.1 s⁻¹	–	2.05 nM	–	–	–	–	63 nM	0.009 s⁻¹	~140000 M⁻¹ s⁻¹
Ab10 (antibody, human IgG1, kappa, N297A, V domains shown, rabbit/human chimeric antibody, made in HEK-293) VH: QSVEESGGRLVTPGTPLTLTCTVSGFSLSSADMIWVRQAPGKGLESIGMIYDDGDTYYATWAKGRFTISKTSTTVDLKIISPTTEDTATYFCVKGVSSVWGQGTLVTVSS VL: DVVMTQTPASVEAAVGGTVTINCQASENIYRSLAWYQQKPGQPPKLLIYSASTLASGVPSRFKGSGSGTEFTLTISDLECADAATYYCQSYDGSSSSSYGVGFGGGTEVVVKR	0.16 nM	2.14 nM	133 nM	66.3 nM	5400 nM	5.98 nM	0.11 nM	0.00011 s⁻¹	> 0.1 s⁻¹	–	–	–	1.57 nM	1e+06 M⁻¹ s⁻¹	250 nM	0.27 s⁻¹	1.1e+06 M⁻¹ s⁻¹	–	–	–
